According to publication PMC11784312 (Journal of Virology, 2024):
Residue numbers refer to the chain shown, from its start.

B1: 2D7 neutralizing antibody (antibody, V domains shown)
VH: VQLQESGPGLVKPSQSLSLTCTVTGYSITSDYTWNWIRQFPGNKLEWMGYISYSGSTSYNPSLKSRMSITRDTSKNQFLLQLNSVTTADTATYYCTRDGPYWHIDVWGAGTTVTVSS
VL: DIQMNQSPSSLSASLGDTITITCHASQTINIWLSWYQLKPGNIPKLLIYKASNLHTGVPSRFSGSGSGTGFTLTISSLQPEDIASYYCQQGQSFPYTFGGGTKLEIK
notes: whole murine IgG
B2: 1H9 neutralizing antibody (antibody, V domains shown)
VH: VQLQESGPGLVKPSQSLSLTCTVTGYSITSDYTWNWIRQFPGNKLEWMGYITYSDTTSYNPSLKSRISITRDTSKNQFFLQLNSVTTEDTATYYCARSDGWYGFAYWGQGTLVTVSA
VL: B1 VL with T28N, I31V, L38Q, S52F, N53D, S85T, S93T, F94Y, Y96F
notes: also called nAb 1H9; source: mouse hybridoma, ascites of BALB/c mice, purified (protein G agarose)

How the values were obtained:
[1] = molecular target: T1, hemagglutinin of A/chicken/Guangdong/SD008/2017 (H7N9) (Influenza A virus …, UniProt A0A2D0Z8H0, strain); assay: ELISA; conditions: both partners purified
[2] = molecular target: SD008 HA expressed from pcDNA 3.1-SD008-HA (Influenza A virus …, UniProt A0A2D0Z8H0, strain); assay: immunostaining of cells or tissue; conditions: one partner purified
[3] = molecular target: T1, hemagglutinin of …; assay: flow cytometry on cells; conditions: one partner purified

| Binder | binding result [1] | binding result [2] | binding result [3] |
| --- | --- | --- | --- |
| B1 | binds | binds | – |
| B2 | – | binds | binds |
